From PMC10786891, “Massively parallel profiling of RNA-targeting CRISPR-Cas13d”
Positions count from the first letter of the chain named. In names and notes the source's numbering stands.

Biological target: T1, EsCas13d, nuclease-dead (Eubacterium siraeum, UniProt B0MS50, R295A;H300A;R849A;H854A)
T1 sequence: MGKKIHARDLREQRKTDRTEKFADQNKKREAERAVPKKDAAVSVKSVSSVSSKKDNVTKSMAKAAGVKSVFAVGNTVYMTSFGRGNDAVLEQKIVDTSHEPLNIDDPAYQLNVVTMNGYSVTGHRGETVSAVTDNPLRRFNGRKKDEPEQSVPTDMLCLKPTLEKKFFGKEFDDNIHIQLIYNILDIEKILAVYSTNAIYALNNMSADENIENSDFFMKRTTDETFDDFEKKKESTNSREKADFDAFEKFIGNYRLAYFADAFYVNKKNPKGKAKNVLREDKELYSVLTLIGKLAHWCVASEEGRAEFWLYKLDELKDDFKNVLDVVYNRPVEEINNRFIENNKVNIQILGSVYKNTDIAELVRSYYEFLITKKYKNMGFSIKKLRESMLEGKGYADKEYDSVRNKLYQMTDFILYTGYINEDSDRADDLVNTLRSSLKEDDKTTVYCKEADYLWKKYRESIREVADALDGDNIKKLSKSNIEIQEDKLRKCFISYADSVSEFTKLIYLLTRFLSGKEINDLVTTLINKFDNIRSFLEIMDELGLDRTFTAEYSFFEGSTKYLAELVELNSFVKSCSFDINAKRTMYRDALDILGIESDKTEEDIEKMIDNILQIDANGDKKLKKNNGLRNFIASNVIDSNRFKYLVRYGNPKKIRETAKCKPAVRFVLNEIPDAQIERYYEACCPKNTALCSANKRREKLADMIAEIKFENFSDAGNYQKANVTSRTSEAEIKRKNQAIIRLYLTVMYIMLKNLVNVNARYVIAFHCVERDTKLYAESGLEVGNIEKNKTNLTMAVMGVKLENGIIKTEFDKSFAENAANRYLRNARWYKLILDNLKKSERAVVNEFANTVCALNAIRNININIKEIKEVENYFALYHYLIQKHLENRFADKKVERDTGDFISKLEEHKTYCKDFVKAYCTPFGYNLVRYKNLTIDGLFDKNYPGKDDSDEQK
Experiment: crRNA (strand 1, pre-loaded); Mg2+; 40 mM Tris-HCl pH 7.5, 150 mM NaCl, 6 mM MgCl2, 1 mM DTT, 0.1% Tween-20, 0.2 mg/ml BSA; 25 C; 10 min per concentration, then washed
Conditions: tags: His6-TwinStrep-SUMO cleaved; N-terminal SNAP kept (SNAP-Surface 488); label: 3' end held by stalled T7 RNA polymerase

B1: target 1 insU 3' of 5,insA 3' of 5 (mixed)
RNA 1: CACCCGUGCAAAAAUGCAGGGGUCUAAAACUGAGCGGAUAACCUCUCUAUGG
RNA 2: GGGAAUGGAUCCACAUCUACGAAUUCGUACCAUAGAGAGGUUAUCCGUACUCACCGAGAUCGGAAGAGCACACGU
Question: Which Kd does the source give for B1 here?
Answer: 13.9 ± 0.6 nM

B2: target 1 insG 3' of 11,insA 3' of 5 (mixed)
RNA 1: B1 RNA 1
RNA 2: B1 RNA 2 with U42G, A43U, U44A, C45U, G47C, U48G
Question: How did the Kd turn out when B2 was run?
Answer: 26.5 ± 2.9 nM

B3: target 1 insA 3' of 22,insA 3' of 15 (mixed)
RNA 1: B1 RNA 1
RNA 2: GGGAAUGGAUCCACAUCUACGAAUUCGUACACAUAGAGAAGGUUAUCCGCUCACCGAGAUCGGAAGAGCACACGU
Question: For B3, which Kd is on record?
Answer: 7.9 ± 0.4 nM

B4: target 1 insU 3' of 14,insG 3' of 9 (mixed)
RNA 1: B1 RNA 1
RNA 2: B1 RNA 2 with G39U, U41G, A43U, U44A, C45G, C46U, G47C, U48C, A49G
Question: For B4, which Kd is on record?
Answer: 28.2 ± 2.9 nM

B5: target 1 C7A,A18U (mixed)
RNA 1: B1 RNA 1
RNA 2: GGGAAUGGAUCCACAUCUACGAAUUCGUACCAUUGAGAGGUUAUACGCUCACCGAGAUCGGAAGAGCACACGU
Question: With B5 as the binder, how does the Kd read?
Answer: 36.4 ± 2.8 nM

B6: target 1 insG 3' of 9,insG 3' of 6 (mixed)
RNA 1: B1 RNA 1
RNA 2: B1 RNA 2 with U44G, C45U, G47C, U48G, A49G
Question: For B6, which Kd is on record?
Answer: 11.2 ± 1.2 nM

B7: target 1 C2A,A20U (mixed)
RNA 1: B1 RNA 1
RNA 2: B5 RNA 2 with A32U, U34A, A45C, C50A
Question: Which Kd does the source give for B7 here?
Answer: 30.1 ± 1.5 nM

B8: target 1 insU 3' of 4,insU 3' of 4 (mixed)
RNA 1: B1 RNA 1
RNA 2: B1 RNA 2 with U48C, A49U, C50U
Question: How did the Kd turn out when B8 was run?
Answer: 9.4 ± 0.5 nM

B9: target 1 insA 3' of 8,insC 3' of 5 (mixed)
RNA 1: B1 RNA 1
RNA 2: B1 RNA 2 with C45A, G47C, U48G, A49C
Question: Which Kd does the source give for B9 here?
Answer: 9.4 ± 0.6 nM

B10: target 1 insA 3' of 10,insA 3' of 10 (mixed)
RNA 1: B1 RNA 1
RNA 2: B1 RNA 2 with U44A, C45A, C46U, G47C, U48C, A49G
Question: With B10 as the binder, how does the Kd read?
Answer: 7.81 ± 0.3 nM

B11: target 1 insU 3' of 22,insU 3' of 20 (mixed)
RNA 1: B1 RNA 1
RNA 2: B3 RNA 2 with A31U, A35U, G36A, A37G, G38A, A39G
Question: B11 was tested. Which Kd did it give?
Answer: 63 ± 6 nM

B12: target 1 insC 3' of 18,insG 3' of 6 (mixed)
RNA 1: B1 RNA 1
RNA 2: GGGAAUGGAUCCACAUCUACGAAUUCGUACCAUACGAGAGGUUAUCCGGCUCACCGAGAUCGGAAGAGCACACGU
Question: How did the Kd turn out when B12 was run?
Answer: 58 ± 10 nM

B13: target 1 G12U,G13C (mixed)
RNA 1: B1 RNA 1
RNA 2: B5 RNA 2 with U34A, G39C, G40U, A45C
Question: Which Kd does the source give for B13 here?
Answer: 17.5 ± 1.3 nM

B14: target 1 C7G,U19G (mixed)
RNA 1: B1 RNA 1
RNA 2: B5 RNA 2 with U33G, U34A, A45G
Question: With B14 as the binder, how does the Kd read?
Answer: 34 ± 10 nM

B15: target 1 insU 3' of 21,insG 3' of 20 (mixed)
RNA 1: B1 RNA 1
RNA 2: B3 RNA 2 with A31C, C32U, U34G, A35U, G36A, A37G, G38A, A39G
Question: With B15 as the binder, how does the Kd read?
Answer: 40 ± 11 nM

B16: target 1 U10A,U19C (mixed)
RNA 1: B1 RNA 1
RNA 2: B5 RNA 2 with U33C, U34A, U42A, A45C
Question: How did the Kd turn out when B16 was run?
Answer: 35 ± 4 nM

B17: target 1 C4G,U19A (mixed)
RNA 1: B1 RNA 1
RNA 2: B5 RNA 2 with U33A, U34A, A45C, C48G
Question: Which Kd does the source give for B17 here?
Answer: 51 ± 18 nM

B18: target 1 G13C,A14G (mixed)
RNA 1: B1 RNA 1
RNA 2: B5 RNA 2 with U34A, A38G, G39C, A45C
Question: With B18 as the binder, how does the Kd read?
Answer: 31 ± 5 nM

B19: target 1 A9G,U10A (mixed)
RNA 1: B1 RNA 1
RNA 2: B5 RNA 2 with U34A, U42A, A43G, A45C
Question: Which Kd does the source give for B19 here?
Answer: 15.5 ± 0.6 nM

B20: target 1 insU 3' of 21,insA 3' of 12 (mixed)
RNA 1: B1 RNA 1
RNA 2: B3 RNA 2 with A31C, C32U, A40G, G42A
Question: For B20, which Kd is on record?
Answer: 63 ± 9 nM

B21: target 1 A16G,A18U (mixed)
RNA 1: B1 RNA 1
RNA 2: B5 RNA 2 with A36G, A45C
Question: Which Kd does the source give for B21 here?
Answer: 86 ± 13 nM

B22: target 1 del3,del13 (mixed)
RNA 1: B1 RNA 1
RNA 2: GGGAAUGGAUCCACAUCUACGAAUUCGUACCAUAGAGAGUUAUCCGCCACCGAGAUCGGAAGAGCACACGU
Question: B22 was tested. Which Kd did it give?
Answer: 7.9 ± 0.4 nM

B23: target 1 A9C,A20U (mixed)
RNA 1: B1 RNA 1
RNA 2: B5 RNA 2 with A32U, U34A, A43C, A45C
Question: Which Kd does the source give for B23 here?
Answer: 80 ± 40 nM

B24: target 1 U3C,U11C (mixed)
RNA 1: B1 RNA 1
RNA 2: B5 RNA 2 with U34A, U41C, A45C, U49C
Question: B24 was tested. Which Kd did it give?
Answer: 51 ± 8 nM

B25: target 1 complement block 4-14 (mixed)
RNA 1: B1 RNA 1
RNA 2: GGGAAUGGAUCCACAUCUACGAAUUCGUACCAUAGAGUCCAAUAGGCGUCACCGAGAUCGGAAGAGCACACGU
Question: B25 was tested. Which Kd did it give?
Answer: 63 ± 31 nM

B26: target 1 insA 3' of 21,insA 3' of 17 (mixed)
RNA 1: B1 RNA 1
RNA 2: B3 RNA 2 with A31C, C32A, G38A, A39G
Question: With B26 as the binder, how does the Kd read?
Answer: 41 ± 5 nM

B27: target 1 insU 3' of 17,insU 3' of 2 (mixed)
RNA 1: B1 RNA 1
RNA 2: B12 RNA 2 with C35G, G36U, G49C, C50U, U51C, C52U
Question: How did the Kd turn out when B27 was run?
Answer: 15.1 ± 2.2 nM

B28: target 1 U8A,G12C (mixed)
RNA 1: B1 RNA 1
RNA 2: B5 RNA 2 with U34A, G40C, U44A, A45C
Question: Which Kd does the source give for B28 here?
Answer: 16.5 ± 1.2 nM

B29: target 1 insA 3' of 4,insG 3' of 3 (mixed)
RNA 1: B1 RNA 1
RNA 2: B1 RNA 2 with U48C, C50U, U51G
Question: For B29, which Kd is on record?
Answer: 6.5 ± 0.4 nM

B30: target 1 insU 3' of 14,insC 3' of 9 (mixed)
RNA 1: B1 RNA 1
RNA 2: B12 RNA 2 with C35G, G36A, A37G, G38A, A39U, U45C, C46U, G48C
Question: How did the Kd turn out when B30 was run?
Answer: 46 ± 4 nM

B31: target 1 insA 3' of 19,insA 3' of 6 (mixed)
RNA 1: B1 RNA 1
RNA 2: B12 RNA 2 with C35A, G48A
Question: How did the Kd turn out when B31 was run?
Answer: 23.2 ± 0.9 nM

B32: target 1 G5C,G17U (mixed)
RNA 1: B1 RNA 1
RNA 2: B5 RNA 2 with U34A, G35U, A45C, G47C
Question: Which Kd does the source give for B32 here?
Answer: 28.1 ± 2 nM

B33: target 1 G17U,A18U (mixed)
RNA 1: B1 RNA 1
RNA 2: B5 RNA 2 with G35U, A45C
Question: With B33 as the binder, how does the Kd read?
Answer: 29.8 ± 2.8 nM
